In the supplement of paper PMC10567573:
± gives the standard deviation.

Assay: protein stability index of a GFP-peptide fusion (GPS, HEK-293T) (PSI 1-6); higher = more stable
[1] = treatment: DMSO, c terminus: a fixed tail appended
[2] = treatment: MLN4924 1 uM, 8 h, c terminus: a fixed tail appended
[3] = treatment: DMSO, c terminus: native
[4] = treatment: MLN4924 1 uM, 8 h, c terminus: native
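Also: 24-mer peptide tiles fused after GFP, lentivirally expressed, FACS-sorted into six equal bins by GFP/DsRed ratio, decoded by Illumina sequencing, PSI is the read-weighted mean bin number.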

Row | Sequence | protein stability index [1] | protein stability index [2] | protein stability index [3] | protein stability index [4]
1 | YIRAPPRSKIYLRFLDYEMQNSNE [NETO1] | 2.28 ± 0.16 | 2.44 ± 0.22 |  | 
2 | IVWFSFEFVVRCFACPSQALFFKN [KCNA4] | 2.91 ± 0.1 | 2.72 ± 0.81 |  | 
3 | KKRRMGTYSLVPKKKTKVLKQRTV [EHMT1] | 3.27 ± 0.22 | 3.82 ± 0.4 |  | 
4 | ASSGQHHDFLSDLFSDDYGGKNCK [CEBPB] | 4.54 ± 0.35 | 4.66 ± 0.45 |  | 
5 | IDKFGFIVGSQGAEGALEEVPLEV [TBC1D10A] | 4.32 ± 0.16 | 4.42 ± 0.34 |  | 
6 | LEGQSPPQSLPSTPKAAWIREEGR [PBXIP1] | 4.89 ± 0.26 | 4.76 ± 0.091 |  | 
7 | ITPWTPSPSEKNSSFTWSVPSSGY [SMTNL2] | 2.72 ± 0.3 | 2.75 ± 0.34 |  | 
8 | WIEHSKLREINFKIVEFNPMVLKG [GLT8D2] | 2.16 ± 0.1 | 2.35 ± 0.14 |  | 
9 | GGLNTETNEKALEAVFGKYGRIVE [RBMX] | 3.59 ± 0.26 | 3.22 ± 0.47 |  | 
10 | EKQKQPRWREGTKDSHDPLPSWAE [PBXIP1] | 3.01 ± 0.51 | 3.18 ± 1.1 |  | 
11 | TETPLEGDFAWERVRGLGLPKLYL [CDKN1A] | 2.18 ± 0.15 | 2.57 ± 0.34 |  | 
12 | RLSKEWEDSKRWSKMDQLAKELTA [CHGA] | 3.18 ± 0.34 | 3.41 ± 0.66 |  | 
13 | GGPGRQTTSPNVLWPTPGHLSPLV [ESR2] | 2.97 ± 0.22 | 3.15 ± 0.048 |  | 
14 | FKKGNRYIRCQKEVGKSFERHKLK [SMG5] | 2.75 ± 0.23 | 2.85 ± 0.14 |  | 
15 | DISMEIPQEFQKTVSTMYYLWMCS [SCAMP3] | 2.28 ± 0.54 | 2.38 ± 0.39 |  | 
16 | LRRGASVNRTTRTNSTPLRAACFD [FEM1A] | 3.81 ± 0.38 | 3.87 ± 0.31 |  | 
17 | NNVVDISVPPTTDGQKPNKLQCCQ [RAB11B] | 4.72 ± 0.26 | 4.58 ± 0.12 |  | 
18 | LLAKNSKPIHTTILNPHVHVIGED [CAMK2B] | 3.2 ± 0.14 | 3.35 ± 0.22 |  | 
19 | KQPPWEFLQVLEPGARGLWKPPDI [SPAG8] | 2.45 ± 0.089 | 2.32 ± 0.23 |  | 
20 | RKDVCKSTHHGCEHICVNNGNSYI [MATN2] | 3.01 ± 0.32 | 3.07 ± 0.23 |  | 
21 | WQPAVPLMHMLHLSGALDFPRQS [SPATS1] |  |  | 2.9 ± 0.38 | 2.73 ± 0.48
22 | PEGHVLRSDGKTCAKLDSCALGDH [MATN2] | 4.79 ± 0.13 | 4.72 ± 0.21 |  | 

Row | Sequence | protein stability index [1] | protein stability index [2] | protein stability index [3] | protein stability index [4]
23 | MACAYAPSGCAIACGGLDNKCSVY [GNB5] | 2.44 ± 0.13 | 2.31 ± 0.25 |  | 
24 | KPHFESSTVKTETISFGSVSPGGV [EPB41L3] | 4.08 ± 0.23 | 4.09 ± 0.11 |  | 
25 | RLVVEFPATGGAIPSWQIRTVKLI [PKD2L1] | 2.62 ± 0.53 | 2.16 ± 0.36 |  | 
26 | PMQERRASFYACRLDKHLYVIGGR [KLHL14] | 2.15 ± 0.49 | 2.23 ± 0.28 |  | 
27 | YIGSIMKGGAVAADGRIEPGDMLL [DVL3] | 2.34 ± 0.22 | 2.57 ± 0.43 |  | 
28 | DLDACALVRGHRRRLLRRLSPSRG [ZSWIM9] | 4.11 ± 0.46 | 4.12 ± 0.29 |  | 
29 | AIHVLGPIDFEESRFYEIHARARD [PCDHGC5] | 2.64 ± 0.45 | 3.01 ± 0.095 |  | 
30 | KLIKCDEIQVDSEEPVFEAVINWV [KLHL12] | 2.15 ± 0.26 | 2.4 ± 0.36 |  | 
31 | MAKSVKYTVNFLEAKEGDLHRIEI [CARM1] | 2.55 ± 0.61 | 2.46 ± 0.58 |  | 
32 | DLKLRKFVFSTEERTQLRLESLED [TRIB1] | 3.74 ± 0.1 | 4.2 ± 0.43 |  | 
33 | WVKGSVPPPLDQYVKFDAVSGDYY [CLPTM1] | 2.79 ± 0.24 | 2.72 ± 0.28 |  | 
34 | RENSSDSPKELKRRNSSSSMSSRL [DLC1] | 5.13 ± 0.23 | 5.05 ± 0.3 |  | 
35 | RMRLFGQRCQKCSWSQYEMPEFSS [RTP4] | 2.42 ± 0.52 | 2.2 ± 0.23 |  | 
36 | RRENSTLDVECHEKEKHVNQLQTK [SASS6] | 5.13 ± 0.11 | 5.26 ± 0.23 |  | 
37 | SPIKKVRKSLALDIVDEDVKLMMS [MYBL2] | 3.6 ± 0.34 | 3.68 ± 0.43 |  | 
38 | PPCAWACPVPAHRRGSWRLPYTDG [CTBP1-DT] | 2.92 ± 0.23 | 2.93 ± 0.17 |  | 
39 | DLDNYFTARRLLSQVRALDRFQVP [NFE2L1] | 2.5 ± 0.2 | 2.35 ± 0.3 |  | 
40 | KFQLNKYTGEIKISENLDYEETGF [PCDHGA10] | 2.6 ± 0.099 | 3.63 ± 0.36 |  | 
41 | VHRRGEYNVYSTFQSHEPEFDYLK [PPP2R2B] | 2.97 ± 0.11 | 2.88 ± 0.17 |  | 
42 | REVFNEIYPVWTYSYLVLLFPVFL [SLC19A2] | 2.71 ± 0.61 | 2.62 ± 0.21 |  | 
43 | CLLTYGMTSSSAYYYTKVMSELFL [PKD2L1] | 3.23 ± 0.41 | 2.83 ± 0.73 |  | 
44 | LEEEIRRKQILLRGKLKKTEEELR [ZC2HC1C] | 4.39 ± 0.17 | 4.59 ± 0.39 |  | 

Row | Sequence | protein stability index [1] | protein stability index [2] | protein stability index [3] | protein stability index [4]
45 | QVRSAAVQLIWVVSQLYPESIVPI [INTS4] | 3.29 ± 0.32 | 2.9 ± 0.32 |  | 
46 | ARELAITDSEHSDAEVSCTDNGTF [RETREG3] | 5.56 ± 0.28 | 5.592 ± 0.033 |  | 
47 | PRSSLAESFFVDYEENEGAGPYLL [ADAMTSL2] | 3.91 ± 0.17 | 3.82 ± 0.17 |  | 
48 | SEKKTISFQGCMAQLFMDHLFAGA [OR4A15] | 2.56 ± 0.73 | 2.66 ± 0.79 |  | 
49 | TLRQKAEADKNDKAVKDLVVLLFE [HSP90AB1] | 3.07 ± 0.39 | 3.12 ± 0.27 |  | 
50 | LRYQETPGPREALSQLRVLCCEWL [ZNF232] | 2.13 ± 0.23 | 2.29 ± 0.22 |  | 
51 | NWFMSFGPEIKLNTSQQGRNQAV [FAM104B] |  |  | 2.12 ± 0.49 | 2.73 ± 1
52 | SGAFQWEELEEDIRKKLKDSGDVS [RHOBTB3] | 5.17 ± 0.27 | 5.2 ± 0.34 |  | 
53 | ESQVFSEKLATDTSTFEATSEGTL [ZNF232] | 5.29 ± 0.13 | 5.15 ± 0.13 |  | 
54 | AAPGVDLTRVLAEMREQYEAMAEK [KRT15] | 4.57 ± 0.32 | 4.35 ± 0.086 |  | 
55 | GSLCAIAGVLTIALPVPVIVSNFN [KCNA4] | 3.33 ± 0.42 | 3.13 ± 0.36 |  | 
56 | EDEDIYKLRHDLKKTSITQQPSKH [PLK2] | 4.98 ± 0.35 | 5.1 ± 0.13 |  | 
57 | RFYYQALSVAPQIGMPFNQLGTLA [SMG5] | 2.63 ± 0.6 | 2.55 ± 0.61 |  | 
58 | KSKWDEEWDKNKSAFPFSDKLGEL [CLINT1] | 3.82 ± 0.31 | 3.85 ± 0.21 |  | 
59 | FSEIISSISDVKFSHSGRYIMTRD [PPP2R2B] | 2.52 ± 0.28 | 2.53 ± 0.29 |  | 
60 | NFAVQHRYLFEEDNLLRSTQKLSH [MATN2] | 2.97 ± 0.24 | 2.85 ± 0.27 |  | 
61 | KKIYCRICMAQIAYSGNTSNLSYH [ZBED1] | 2.19 ± 0.28 | 2.13 ± 0.3 |  | 
62 | QQDDSDEYDDDDSAASTSFQPQPV [ZNF207] | 5.4 ± 0.18 | 5.37 ± 0.18 |  | 
63 | TDHQTPPTSPVQGTTPQISPSTLI [HDAC6] | 4.93 ± 0.16 | 4.86 ± 0.27 |  | 
64 | PSGPPPPPPSVLGVGPVAPPPPPP [WASL] | 4.86 ± 0.21 | 4.89 ± 0.18 |  | 
65 | AISDQLLGAGSDLKDFTLNETVNS [ADAMTSL2] | 4.32 ± 0.21 | 4.8 ± 0.42 |  | 
66 | VAGDCLDEKQCKQCANKVLQHMKA [LRRC59] | 3.74 ± 0.14 | 3.9 ± 0.43 |  | 

Row | Sequence | protein stability index [1] | protein stability index [2] | protein stability index [3] | protein stability index [4]
67 | MSSQVVGIEPLYIKAEPASPDSPK [ESRRA] | 4.86 ± 0.12 | 4.89 ± 0.095 |  | 
68 | CRAPPPEARGIRAPPLPDSPQPLA [FCHO1] | 4.2 ± 0.6 | 4.3 ± 0.22 |  | 
69 | LAEALLHPFFAGLTPEERSFHTSR [CLK3] | 2.29 ± 0.2 | 2.21 ± 0.23 |  | 
70 | LNPQLVQPAKKPLLWSDPADNKIV [ESRRG] | 3.78 ± 0.23 | 3.83 ± 0.047 |  | 
71 | SCKADVVELLLSHADCDRRSRIEA [FEM1B] | 2.42 ± 0.17 | 2.65 ± 0.29 |  | 
72 | PILAPRIFGSNKWTTEQQQRFHEI [ARL6IP1] | 3.07 ± 0.25 | 3 ± 0.22 |  | 
73 | RRITYLQNPKDCSKAKKLVCNINK [FUT8] | 2.77 ± 0.28 | 3.05 ± 0.26 |  | 
74 | RLRDAGFRVTLWVHPFVNYNSSRF [MYORG] | 2.61 ± 0.61 | 2.44 ± 0.15 |  | 
75 | EEFAAGPAQSGILSDREVVNLFLH [BTBD1] | 3.16 ± 0.56 | 3.46 ± 0.22 |  | 
76 | TQIPADEDTQTDADSSAQAAAQAP [TAF7L] | 5.49 ± 0.072 | 5.51 ± 0.15 |  | 
77 | PIDFEESRFYEIHARARDQGQPAM [PCDHGC5] | 4.3 ± 0.2 | 4.38 ± 0.21 |  | 
78 | INVSKGINHLLKSPFSVHPKTGRI [PRIM1] | 2.62 ± 0.5 | 2.65 ± 0.37 |  | 
79 | SAAWMKERTSPGAIHYCASTSEES [SPDEF] | 4.66 ± 0.13 | 4.72 ± 0.3 |  | 
80 | FPDGDDEFDSPHEDIVFETDHILE [STX11] | 5.19 ± 0.25 | 5.29 ± 0.16 |  | 
81 | LRNFNSAKDMKKAVAHMKYMGKGS [MATN2] | 3.05 ± 0.37 | 3.43 ± 0.46 |  | 
82 | RSGIQFGSWGSFQLPGLLNFGEFK [CLCN6] | 2.29 ± 0.26 | 2.4 ± 0.3 |  | 
83 | DQGDEGKEGRPGIPGLPGLRGLPG [SCARA5] | 5 ± 0.13 | 4.93 ± 0.29 |  | 
84 | EFLGNRSVILNHMAREHAFNIGLP [ZNF277] | 2.21 ± 0.19 | 2.26 ± 0.2 |  | 
85 | VRRGHSHLAPSEAKAADSPTRNDL | 4.96 ± 0.16 | 4.9 ± 0.2 |  | 
86 | NWPARQRGTHAVVGVATARAPLHS [SPSB4] | 3.52 ± 0.19 | 3.57 ± 0.27 |  | 
87 | QAFRAIDRGDYYLEGYRDNAYKDL [PCMTD1] | 2.85 ± 0.19 | 2.98 ± 0.53 |  | 
88 | HLLIPELGACVAPGGNLIVELARY [DNAAF3] | 2.28 ± 0.085 | 2.25 ± 0.24 |  | 
